Source: PMC10442227, “Mechanistic and evolutionary insights into a type V-M CRISPR–Cas effector enzyme”

Legend:
Cas12m2 (SPR prep) = molecular target: T1, Cas12m2 (SPR prep) (UniProt PDB:8HIO_2 1-596); experiment: SPR; 5 mM Mg2+; two-state fit, 8-63 nM RNP; SPR: 20 mM HEPES pH 7.8, 150 mM KCl, 10% glycerol, 5 mM MgCl2, 1 mM DTT, 0.05% Tween-20, 25 C; cryo-EM: 20 mM HEPES-NaOH pH 7.6, 50 mM NaCl, 2 mM MgCl2, 10 uM ZnCl2; settings: protein: recombinant; tags: pML-1B vector, nickel-purified (His); label: 5'-biotin on DNA top strand; guide pairs with DNA top strand; DNA blunt 50-bp duplex
T1 sequence: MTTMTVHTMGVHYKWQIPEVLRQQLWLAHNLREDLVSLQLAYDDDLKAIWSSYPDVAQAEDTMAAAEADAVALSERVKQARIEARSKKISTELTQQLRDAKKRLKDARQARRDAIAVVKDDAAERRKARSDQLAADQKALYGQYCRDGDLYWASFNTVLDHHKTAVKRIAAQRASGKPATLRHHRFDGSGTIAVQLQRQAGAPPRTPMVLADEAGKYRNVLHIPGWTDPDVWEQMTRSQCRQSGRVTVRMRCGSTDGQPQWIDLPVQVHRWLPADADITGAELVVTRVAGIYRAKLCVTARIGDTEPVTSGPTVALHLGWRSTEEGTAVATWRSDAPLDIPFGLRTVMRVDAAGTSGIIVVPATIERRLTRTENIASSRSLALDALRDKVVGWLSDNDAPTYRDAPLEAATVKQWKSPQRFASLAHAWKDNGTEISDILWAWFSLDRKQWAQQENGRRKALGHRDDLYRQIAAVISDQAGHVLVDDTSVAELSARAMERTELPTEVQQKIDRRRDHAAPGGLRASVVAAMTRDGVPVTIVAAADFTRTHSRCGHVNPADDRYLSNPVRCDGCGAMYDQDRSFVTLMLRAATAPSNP

Cas12m2 = molecular target: T2, Cas12m2 (UniProt PDB:8HIO_2 1-596); experiment: cryo-EM; full R-loop state (state I), 17-bp heteroduplex; Mg2+, Zn2+; SPR: 20 mM HEPES pH 7.8, 150 mM KCl, 10% glycerol, 5 mM MgCl2, 1 mM DTT, 0.05% Tween-20, 25 C; cryo-EM: 20 mM HEPES-NaOH pH 7.6, 50 mM NaCl, 2 mM MgCl2, 10 uM ZnCl2; settings: protein: recombinant; tags: N-terminal His6; crRNA guide pairs with S4 (17 bp, R-loop); S4/S5 blunt 36-bp duplex
T2 sequence: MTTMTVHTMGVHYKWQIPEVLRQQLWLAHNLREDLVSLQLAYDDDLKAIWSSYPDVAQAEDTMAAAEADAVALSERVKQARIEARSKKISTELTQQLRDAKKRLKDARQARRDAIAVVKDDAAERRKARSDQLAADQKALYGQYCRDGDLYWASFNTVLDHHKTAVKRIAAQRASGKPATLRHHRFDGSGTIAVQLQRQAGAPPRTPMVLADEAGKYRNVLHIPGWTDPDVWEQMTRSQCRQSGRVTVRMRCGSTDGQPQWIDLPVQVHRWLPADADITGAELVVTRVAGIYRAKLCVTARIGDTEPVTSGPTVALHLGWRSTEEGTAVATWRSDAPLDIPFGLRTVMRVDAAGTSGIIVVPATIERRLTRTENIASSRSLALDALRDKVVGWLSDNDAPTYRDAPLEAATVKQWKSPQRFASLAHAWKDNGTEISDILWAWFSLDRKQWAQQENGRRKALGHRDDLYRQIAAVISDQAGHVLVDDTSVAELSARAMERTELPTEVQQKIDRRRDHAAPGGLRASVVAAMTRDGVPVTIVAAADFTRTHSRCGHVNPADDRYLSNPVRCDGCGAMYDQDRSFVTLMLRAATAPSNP

Cas12m2 (binary complex) = molecular target: T3, Cas12m2 (binary complex) (UniProt PDB:8HIO_2 1-596); experiment: cryo-EM; binary complex; SPR: 20 mM HEPES pH 7.8, 150 mM KCl, 10% glycerol, 5 mM MgCl2, 1 mM DTT, 0.05% Tween-20, 25 C; cryo-EM: 20 mM HEPES-NaOH pH 7.6, 50 mM NaCl, 2 mM MgCl2, 10 uM ZnCl2; settings: protein: recombinant; tags: N-terminal His6; chain copies: 2; stem and pseudoknot scaffold
T3 sequence: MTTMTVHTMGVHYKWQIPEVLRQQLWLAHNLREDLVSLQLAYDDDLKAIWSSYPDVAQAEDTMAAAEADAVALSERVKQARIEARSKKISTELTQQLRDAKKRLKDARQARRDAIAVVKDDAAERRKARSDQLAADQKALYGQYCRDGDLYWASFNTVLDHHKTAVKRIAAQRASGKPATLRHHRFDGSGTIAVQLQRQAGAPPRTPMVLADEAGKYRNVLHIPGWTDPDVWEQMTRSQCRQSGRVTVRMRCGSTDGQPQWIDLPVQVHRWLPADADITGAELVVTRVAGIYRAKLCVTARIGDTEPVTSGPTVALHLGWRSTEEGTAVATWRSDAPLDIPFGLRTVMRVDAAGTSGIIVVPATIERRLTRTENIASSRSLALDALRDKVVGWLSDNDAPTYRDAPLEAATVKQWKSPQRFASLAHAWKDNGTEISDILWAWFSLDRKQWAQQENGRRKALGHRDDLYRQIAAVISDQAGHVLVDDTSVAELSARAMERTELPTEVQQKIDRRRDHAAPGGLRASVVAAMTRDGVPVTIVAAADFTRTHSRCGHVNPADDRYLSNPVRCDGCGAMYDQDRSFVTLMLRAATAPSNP

B1: PAM-SCNR RNA + 50-bp target dsDNA (mixed)
RNA: GUGUCAUAGCCCAGCUUGGCGGGCGAAGGCCAAGACGUCGAGUGCAAAACCUUUCG
DNA 1: CAGCTATAGTTCTCGAAAGGTTTTGCACTCGACTAAAGGACTCTATGACC
DNA 2: GGTCATAGAGTCCTTTAGTCGAGTGCAAAACCTTTCGAGAACTATAGCTG
B1 gave a Kd (Cas12m2 (SPR prep)) of about 2.7 nM.

B2: crRNA (56 nt) + 36-bp target DNA (TTG PAM) (mixed)
RNA: GUGUCAUAGCCCAGCUUGGCGGGCGAAGGCCAAGACGGAGAUGAGGUGCGCGUGGC
DNA 1: GATGGTGCCACGCGCACCTCATCTCCCAAATAGACA
DNA 2: TGTCTATTTGGGAGATGAGGTGCGCGTGGCACCATC
B2: binds (Cas12m2).

B3: crRNA (56 nt) (structured_RNA)
RNA: GUGUCAUAGCCCAGCUUGGCGGGCGAAGGCCAAGACGGAGAUGAGGUGCGCGUGGC
B3: binds (Cas12m2 (binary complex)).
